This test concerns the target Human lactoferrin (human). Nature of the test: small angle neutron scattering (SANS); iron containing samples in solution, 7 °C: iron saturated Lf (L3770; 100 mM MES, 150 mM NaCl, D2O) at pD 5 and pD 7, and partially saturated Lf (L3770 in the EDTA buffer, pD 5); concentration series 2.5-50 mg/ml, form factor extrapolated to c = 0, aggregates modelled by a Guinier term added to the monomer form factor.

Turning to Human lactoferrin (natural protein), the stoichiometry N (as a rule, a count of units in the complex or per binding partner) is 10 monomers.

The values above are taken from article PMC5095980.
